The data set relates to C=CC(=O)SCCNC(=O)CCNC(=O)[C@H](O)C(C)(C)COP(=O)(O)OP(=O)(O)OC[C@H]1O[C@@H](n2cnc3c(N)ncnc32)[C@H](O)[C@@H]1OP(=O)(O)O. In words: purified protein. The following applies: apparent; kcat at 4.4 mM CO2, combined reduction and carboxylation.

From the text: steady-state kinetics, Michaelis-Menten fit on PCSEN_ΔDH (propionyl-CoA synthase, reductase domain activity)

In the case of “PCSEN_ΔDH (propionyl-CoA synthase, reductase domain activity) (Erythrobacter sp. NAP1; E1027Q/T1753M)”, the Km (commonly the substrate concentration at which the rate is half of its maximum) is 19.7 ± 1.2 µM and the kcat – broadly, the maximal rate divided by the concentration of active sites – came out at 6.5 ± 0.6 s⁻¹.
As to “PCSEN_ΔDH (propionyl-CoA synthase, reductase domain activity) (Erythrobacter sp. NAP1; E1027Q)”, the Km came to 14 ± 2 µM and the kcat was determined as 7.4 ± 1.0 s⁻¹.
On to “PCSEN_ΔDH (propionyl-CoA synthase, reductase domain activity) (Erythrobacter sp. NAP1; D1302S/E1027Q/T1753M)”, for which the Km came out at 26 ± 3 µM and the catalytic constant (kcat) was determined as 0.46 ± 0.03 s⁻¹.
Take “PCSEN_ΔDH (propionyl-CoA synthase, reductase domain activity) (Erythrobacter sp. NAP1; D1302S/E1027Q)”: the Km turned out to be 27 ± 3 µM and the kcat was 1.77 ± 0.09 s⁻¹.

Source of the values: publication PMC6650136, “Awakening the Sleeping Carboxylase Function of Enzymes: Engineering the Natural CO2-Binding Potential of Reductases” (Journal of the American Chemical Society, 2019).
